Assay results taken from US20080305501A1.

Target: chimeric receptor comprising mouse TNFR1 external domain (residues 1-210 of SEQ ID NO:1) linked to the transmembrane and intracellular domains of mouse RANK (residues 210-625 of SEQ ID NO:2) (mouse)
Experiment: cell-based or functional assay

Sequence of chimeric receptor comprising mouse TNFR1 external domain (residues 1-210 of SEQ ID NO:1) linked to the transmembrane and intracellular domains of mouse RANK (residues 210-625 of SEQ ID NO:2) (mouse) (chain, as listed by the source mutant): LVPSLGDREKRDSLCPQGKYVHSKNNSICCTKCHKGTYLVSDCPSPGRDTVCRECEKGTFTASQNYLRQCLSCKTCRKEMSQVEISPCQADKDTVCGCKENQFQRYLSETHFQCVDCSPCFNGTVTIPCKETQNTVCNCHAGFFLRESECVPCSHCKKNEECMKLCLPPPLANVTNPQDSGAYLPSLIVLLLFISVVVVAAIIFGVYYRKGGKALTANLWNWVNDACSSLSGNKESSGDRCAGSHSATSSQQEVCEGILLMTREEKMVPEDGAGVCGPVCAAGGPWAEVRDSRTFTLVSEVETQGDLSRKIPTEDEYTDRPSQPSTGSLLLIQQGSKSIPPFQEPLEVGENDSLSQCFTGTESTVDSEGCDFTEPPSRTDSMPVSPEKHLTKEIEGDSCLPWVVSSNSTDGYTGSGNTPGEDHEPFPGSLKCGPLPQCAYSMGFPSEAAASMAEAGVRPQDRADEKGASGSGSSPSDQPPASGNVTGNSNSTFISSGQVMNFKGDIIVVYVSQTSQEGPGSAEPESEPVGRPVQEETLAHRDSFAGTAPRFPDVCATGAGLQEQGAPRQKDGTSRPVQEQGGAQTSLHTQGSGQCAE

- osteoclast formation; lowest TNFα concentration still active: 1 ng/mL
Substance: Recombinant mouse TNFα (410-TRNC-050, R&D Systems) (from UniProt P06804 80-235) (ligand)
